Laboratory results as given in the nanobody polyreactivity screen of Harvey et al. (2022).

Assay: yeast display, Sf9 membrane polyspecificity reagent, FACS + sequencing; frameworks hold sequencing errors
In short: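 Galactose induction of a Saccharomyces cerevisiae BJ5465 synthetic nanobody display library ran 36–48 hours. The cells were then stained for 1 hour at 4 °C with 10% biotinylated, detergent-solubilized Sf9 membrane reagent, pulled down on streptavidin microbeads and FACS-sorted into low and high (top ~1%) gates on expression and reagent-binding fluorescence. Labels for polyreactivity follow the gate of origin.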

| Sequence | polyreactivity (PSR sort gate) |
| --- | --- |
| QVQLVDSGGGLVQAGGRLRLSCAASGRTFYRNAMGWDSQAPGKERELVAAITSGGSTYYADSVKGRFTISRDTAKNTGYLQMNSLKPEDTAVYYCAALRHALRYDYWGQGTQVTVSS | low polyreactivity |
| QVQLVDSGGGLVQAGGRLRLSCAASGYILTHYAMGWYRQAPGKERELVAAITRVGNTNYADSVKGRFTISRDNAKNTVYLQMNSLKPEDTAVYSCAADGVASLFGDPPTEFDYWGQGTQVTVSS | low polyreactivity |
| QVQLVDSGGGLVQAGGSLRISCAASGLIFSKNVMGWYRQAPGKEREFVAAISQRGGSTYYADSVKGRFTISRDIAKNTVYLQMNSLKPEDTAVYYCAADNTVSHEDYWGQGTQVTVSS | high polyreactivity |
| QVQLVDSGGGLVQAGGSLRISCAASGNILIGNVMGWYRQAPGKERELVAAITSGGDTYYADSVKGRITISRDNAKNTVYLQMNSLKPEDTAVYYCAADRPGQPKYEYWGQGTQVTVSS | low polyreactivity |
| QVQLVDSGGGLVQAGGSLRISCAASGYIFSANAMGWYRKAPGKEREFVAAISSTGGSTYYADSVKGRFTISRDTAKNTVYLQMNSLKTEDTSVYYFEAYIRRYFHYDYWGQGTQVTVSS | high polyreactivity |
| QVQLVDSGGGLVQAGGSLRLSCAASGCTFGSYAMGWYRQAPGKERELVAGITGSGGRTYYADSVKGRFTISRDNAKNTVYLQMNSLKPEDTAVYYCATTGRRWYYPYHYWGQGTHVTVSS | high polyreactivity |
| QVQLVDSGGGLVQAGGSLRLSCAASGFIFDINAMGWYRQAPGKERELVAAISYSGGSTYYADSVKGRFTISRDNAKNTVYLQMNSLKPEDTAVYYCAADCGPDSDEGDYWGQGTQVTVSS | low polyreactivity |
| QVQLVDSGGGLVQAGGSLRLSCAASGFIFGKNAMGWYRQAPGKERELVAVISWRGSSTNYADSVKGRFTISRDNAKNTVYLQMNSLKPEDTAVYYCAARYPARGTLYYWGQGTQVTVSS | low polyreactivity |
| QVQLVDSGGGLVQAGGSLRLSCAASGFIFVKYAMGWYRQAPGKERELVAAITTSGTGTFYADSVKGRFTISRDNAKNTVYLQMNSLKPEDTAVYYCNALGHPGDDWGQGTQVTVSS | low polyreactivity |
| QVQLVDSGGGLVQAGGSLRLSCAASGFILGSNVMGWYRQAPGIERELVAAISYSGGSTYYADSVKGRFTISRDNAMNTVYLQMNILKPEDTAVYYCNARPSDVWYYYWGQGTQVTVSS | low polyreactivity |
| QVQLVDSGGGLVQAGGSLRLSCAASGFNFDRNTMGWYRKAPGKERELVATISSTGTTNYADSVKGRFTISRDNAKNTVYLQMNSLKPEDTAVYYCNAYPRWRYVSYYRSYRYDYWGQGTQVTVSS | high polyreactivity |
| QVQLVDSGGGLVQAGGSLRLSCAASGFTFGPYAMGWYRQAPGKERELGARITYRTGSTYYGDSVKGRFTISRDNAKNTVYLQINSLKPEDTAVYYCAAAYYCGQGTQVTVSS | high polyreactivity |
| QVQLVDSGGGLVQAGGSLRLSCAASGFTFSYYVMGWYRQAPGKERELVAAITSSGGSTYYADSVKGRFTISRDNAKNTVSLQMISRNPEDTAVYYCNALVLSSEYGYWGLGTQVTVSS | high polyreactivity |
| QVQLVDSGGGLVQAGGSLRLSCAASGFTFVYNVMGWNIQAPGKERELVAAINAGGGSTYYADSVKGRFTISRDNAKNTVYLQMNSLKPEDTAVYYGNARVRVRVGRNWSSYYYWGQGTQVTVSS | high polyreactivity |
| QVQLVDSGGGLVQAGGSLRLSCAASGFTFYANAMGWYRQAPGTERELVAALSRGVSPTYADSVKGRFTISRDNGKNTVYLEMNSLKPEDTAVYYCASDGNVIAQGYDYWGQGTQVTVSS | low polyreactivity |
| QVQLVDSGGGLVQAGGSLRLSCAASGGTFDTYAMGWYRQAPGKERELVAVIRASGGDTYYADSVKGRFTISRDNAKNTVYLQMNSLKPEDTAVYYCAAVLPFKYDYWGQGTQVTVSS | low polyreactivity |
| QVQLVDSGGGLVQAGGSLRLSCAASGHTLAVNAMGWYRPAPGKERELVAAITSSGGSTSYADSEKGRFTISRDNAKNTVYLQMNSLKPEDTAVYYCAAEQRYPLIILYDYWGQGTQVTVSS | low polyreactivity |
| QVQLVDSGGGLVQAGGSLRLSCAASGITFGNYAMGWYRQAPGKERELVASISWNVGSTYYADSVKGRFTISRDNAKNTVYLQMNSLKPEDTAVYYCARGYDRPRVATFHRFDYWGQGTQVTVSS | low polyreactivity |
| QVQLVDSGGGLVQAGGSLRLSCAASGITFRGYAMGWYRQSPGKERELVATITSSGGSTYYADSVKGRFTISRDNAKNTVYLQMNSLKPEDTAVYYCAAVPYTRYSSSRGYWGQGTQVTVSS | high polyreactivity |
| QVQLVDSGGGLVQAGGSLRLSCAASGITFWDNVMGWYRQATGKERELVATITYRGGSTYADSVKGRFTISRDNAKITVFLQMNSVKPEDTAVYYCNTGVTVDILSYDSWGQGTQVTVSS | low polyreactivity |
| QVQLVDSGGGLVQAGGSLRLSCAASGLTFKRYAMGWYRQAPGKERQLVASITGNGGSSYYADSVKGRFTISRDNAKNTVYLQMNSLKPEDTAVYYCNARRYVRTSQQPLYDYWGQGTQVTVSS | high polyreactivity |

| Sequence | polyreactivity (PSR sort gate) |
| --- | --- |
| QVQLVDSGGGLVQAGGSLRLSCAASGNIFWENTMGSYRQAPGKERELVASISNTGTTNYADSVKGRFTISRDNAKNTVYLQMNSLKPEDTAVYDCNTDLWIDTASPAPNDDDYWGQGTQVTVSS | low polyreactivity |
| QVQLVDSGGGLVQAGGSLRLSCAASGNTIGRNAMGWYRQAPGKEWELVAAISFSGSRTYYADSVKGRFTISRDNAKNSVYLQMNILKPEDTAVYNFIAPEGRKPYDSWVQGTQVTVSS | low polyreactivity |
| QVQLVDSGGGLVQAGGSLRLSCAASGRIFAWYAMGWYRQAPGKERELVAAISSGGSTNYADSVKGRFTISRDNAKNTVYLQMNSLKPEDTAVYYCNRYPVRDTGGYWGQGTQVTVSS | low polyreactivity |
| QVQLVDSGGGLVQAGGSLRLSCAASGRIFEGDAMGWYIQAPGKESDLVASISYDGGSTYYADSVKGRFTISRDNENITVELQMNSLKPEDTAVYYCAAVYRRRSYSFYYWGQGTQVTVSS | high polyreactivity |
| QVQLVDSGGGLVQAGGSLRLSCAASGRIFNWYAMGWYRQAPGKERELVARITWCDGGTYYADSVKGRFTISRDNAKNTVSLQMNSLKPDDTAVYYCAKQWKSYYALDYWGQGTQVTVSS | high polyreactivity |
| QVQLVDSGGGLVQAGGSLRLSCAASGRIFPRNAMGWYRQAPGKERELVATIRSSTYYADSVKGRFTISRDNAKNTVYLQMNSLKPEDTAVYYCNVRLSYSYISPSDWNFDYWGQGTQVTVSS | low polyreactivity |
| QVQLVDSGGGLVQAGGSLRLSCAASGRIFPVYAMAWYRHAPGKEREMVAAITKSGGNTYYADSVKGRFTISRDNAKYTVYLQMNSMKPEDTAVYYCAADSSAKMGPQYYYALDYWGQGTKVTVSS | low polyreactivity |
| QVQLVDSGGGLVQAGGSLRLSCAASGRIFPYYTMGCYRQAPGKETEFVAAISSSSVSTYYADSVKGRFTISRDNAKNTVYLQMNSLKAEDTAVYYCAAKRVGYHIGYVYPYGYWGQGTQVTVSS | high polyreactivity |
| QVQLVDSGGGLVQAGGSLRLSCAASGRIFRGYAMGWYRQAPGKERELVAAITSGGITNYADSVKGRFTISRDNAKNTVYLQMNRLKPEDTAVYYCNTRRGWRDFDYWGQGTQVTVSS | low polyreactivity |
| QVQLVDSGGGLVQAGGSLRLSCAASGRIFSWYTMGWYRQAPGKERELVAVITSGGTTKYADSVKGRFTISRDNAKNTVYLQMNSLKPEDTAVYYCNGAGRDYAVRWGSFDYWGQGTQVTVSS | low polyreactivity |
| QVQLVDSGGGLVQAGGSLRLSCAASGRIFYRYALGWYRQAPGKERELVAAITRGGRTNYADSVKGRFTISRDNAQNTVYLQMNSLKPEDTAVYYCRPLWYGFDYWGQGTQVTVSS | high polyreactivity |
| QVQLVDSGGGLVQAGGSLRLSCAASGRTFGSYAMGWSRQAPGKERELVAAISSSGGRTYYADSVKGRFTISRDNAKNTVYLQLNSLKPEDTAVYYCNARWRFLYDYWGQGTQVTVSS | high polyreactivity |
| QVQLVDSGGGLVQAGGSLRLSCAASGRTFSYYGMGWYRQAPGQERELVACIRRRGGSTYYADSVKGRFTISRDNAKNNVSLQMNSLNPEDTAVYYCTAATYGDYSNLGYGYWGQGTQVTVSS | high polyreactivity |
| QVQLVDSGGGLVQAGGSLRLSCAASGRTFVSYAMGWYRQAPGKERELVAAISRSGGRTYYADSVKGRFTISRDNAMNSVYLQMNCLKPEDTAVYYCATKQYGTLARYDYWGQGSQVTVSS | high polyreactivity |
| QVQLVDSGGGLVQAGGSLRLSCAASGRTFYSYAMGWYRQAPGKERELVSAISRNGGSTYYADSVKGRFTISRDNAKNSVYLQMNSLKPEDTAVYYCAAKRAGPYGISKGMDYWGQGTQVTVSS | high polyreactivity |
| QVQLVDSGGGLVQAGGSLRLSCAASGRTFYYYAMGWSRQEPGKEREFDADISGRGGTTYYADSVKGRFTISRDNAKKTVYLLMNSLKPEDTAVYYCAARSVSTLRYTSRKLRYDYWGQGTQVSVSS | high polyreactivity |
| QVQLVDSGGGLVQAGGSLRLSCAASGRTFYYYAMGWYRQAPGKERELVADIRGRGGSTYYADSVKGRFTISRDNAKNTVYLQMNSLKPEDTAVYYCARRSPNPYSIYYYWGQGTQVTVSS | high polyreactivity |
| QVQLVDSGGGLVQAGGSLRLSCAASGRTLWYYTMGWYRQAPGKERELVADITRGTSTNYADSVKVRFTISRDNAKNTVYLQMNSLKPEDTAVYYCNRAHGRSRYSRDYDSWGQGTQVTVSS | low polyreactivity |
| QVQLVDSGGGLVQAGGSLRLSCAASGSIFKRNAMGWYRQAPGKERELVATISSRGGSTYYADSVKGRFTISRDNAKNTVYLQMNSLKPEDTAVYYCSARGYQITGNYYTPTSKYNYWGQGTQVTVSS | high polyreactivity |
| QVQLVDSGGGLVQAGGSLRLSCAASGSIFPPYAMGWYRQAPGKERELVARISWSTSSTNYADSVKGRFTISRDNAKNTVYLQMNSLKPEVTAVYYCAADYYVFPGYDYWGQGTQVTVSS | high polyreactivity |
